Results on three molecules are retold here after patent publication US20250376501A1 (JINGYUAN BIOSCIENCES SUZHOU, published 2025).

For assay [1], the target named is T1, hTSLP-mFc recombinant protein (ACROBiosystems, Cat. No. TSP-H5255) (human, UniProt Q969D9 29-159).
T1 construct: Bought protein; also called hTSLP-Fc protein; not shown: mouse Fc tag
Kind of assay: ELISA, hTSLP-mFc coated 50 ng/well, anti-His HRP. As to the method: hTSLP-mFc recombinant protein (ACROBiosystems, Cat. No. TSP-H5255) was coated onto a plate at 50 ng/well and incubated at 4° C. overnight. […] After washing, mouse anti-His tag horseradish peroxidase-labeled antibody (1:5000) (purchased from Beijing Sino Biological, 105327-MM02T-H) was added, and the mixture was reacted at room temperature for 1 hour. After washing, TMD substrate solution was added, and the absorbance was read at 450 nm. Data processing and graphical analysis were performed using the software Graphpad Prism 6.0.
For orientation: ELISA stands for enzyme-linked immunosorbent assay.

In assay [2] the target is T2, hTSLP recombinant protein (ACROBiosystems, Cat. No. TSP-H52Ha) (human, UniProt Q969D9 29-159). Kind of assay: cell-based or functional assay.
T2 sequence (Q969D9 29-159 R127A/R130A limits assumed): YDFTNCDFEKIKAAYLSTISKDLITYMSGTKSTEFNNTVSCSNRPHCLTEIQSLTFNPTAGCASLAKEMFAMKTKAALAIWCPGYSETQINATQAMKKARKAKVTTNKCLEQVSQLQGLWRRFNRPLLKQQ
Assay [3] addresses T2, hTSLP recombinant protein …. Kind of assay: competitive ELISA: blocks binding of hIL-7Rα-mFc to hTSLP/TSLPR-Fc complex, anti-mouse Fc HRP. The procedure:
TSLPR-Fc fusion protein was coated onto a plate at a concentration of 0.5 μg/mL and a volume of 100 μL per well, and incubated at 4° C. overnight. […] Then, goat anti-mouse Fc tag horseradish peroxidase-labeled antibody (1:5000) was added, and the mixture was reacted at room temperature for 1 hour. Then, TMD substrate solution was added, and the absorbance was read at 450 nm. Data processing and graphical analysis were performed using the software Graphpad Prism 6.0.

The target is the same in assay [4]. Kind of assay: competitive ELISA: blocks binding of hTSLP/hTSLPR-Fc complex to coated mouse IL-7Rα-his, anti-human Fc HRP. As to the method:
Then, goat anti-human Fc tag horseradish peroxidase-labeled antibody (1:10000) was added, and the mixture was reacted at room temperature for 1 hour. Then, TMD substrate solution was added, and the absorbance was read at 450 nm. Data processing and graphical analysis were performed using the software Graphpad Prism 6.0.

The next assay concerns the target T3, hTSLP/TSLPR-Fc complex (human, UniProt Q9HC73 23-231).
T3 construct: also called hTSLP/hTSLPR-Fc complex; not shown: His tag of the bought hTSLP; Fc tag of the bought protein (detected with anti-human Fc)
Description: ELISA, TSLPR-Fc coated, hTSLP added, hIL-7Rα-mFc titrated, anti-mouse Fc HRP. The procedure: TSLPR-Fc recombinant protein (purchased from ACROBiosystems, Cat. No. TSR-H525a) was coated onto a plate at 0.1 μg/well and incubated at 4° C. overnight. Subsequently, the plate was washed and added with 0.1 μg/well of hTSLP, and the mixture was reacted at room temperature for 1 hour. […] After washing, goat anti-mouse Fc tag horseradish peroxidase-labeled antibody (purchased from Abcam, ab97040) was added, and the mixture was reacted at room temperature for 1 hour. After washing, substrate solution was added, and the absorbance was read at 450 nm.

T1 sequence (Q969D9 29-159 R127A/R130A limits assumed): as above

B1: TSLPR-his (Novoprotein Scientific Inc., Cat. No. CW75) (receptor, UniProt Q9HC73 23-231, looked up)
chain: QGGAAEGVQIQIIYFNLETVQVTWNASKYSRTNLTFHYRFNGDEAYDQCTNYLLQEGHTSGCLLDAEQRDDILYFSIRNGTHPVFTASRWMVYYLKPSSPKHVRFSWHQDAVTVTCSDLSYGDLLYEVQYRSPFDTEWQSKQENTCNVTIEGLDAEKCYSFWVRVKAMEDVYGPDTYPSDWSEVTCWQRGEIRDACAETPTPPKPKLSK
notes: Bought protein; not shown: His tag
The EC50 is the concentration at which the effect is half-maximal. As to B1, the EC50 in assay [1] was 0.803 µg/mL.

B2: 3H10-his recombinant protein (designed binder)
chain: GSHMDLGKKLLEAAWAGRDDEVRILMANGADVNAGDASGDTPLHLAAFSGHLEIVEVLLKHGADVNAEDLLGMTPLHLAAPFGHLEIVEVLLKHGADVNAAARNNGKTPLHLAAFVGHLEIVEVLLKNGADVNAQDKFGKTAFDISIDNGNEDLAEILQKLNG
notes: Expressed in E. coli Rosetta from pet28b, purified on a nickel column; also called 3H10-his fusion protein; 3H10 recombinant protein; not shown: His tag from vector pet28b
Broadly, the IC50 is the concentration needed to halve the response being measured. For the molecule B2, in assay [2], the “inhibition of hTSLP-induced reporter gene expression in BaF3-hTSLPR-hIL-7R-STAT5-Luc cells, IC50” value was determined as 0.348 nM and the “inhibition of the proliferation-promoting effect of hTSLP on Ba/F3-TSLPR/IL-7Rα cells (CTG), IC50” value amounted to 1.55 nM. Further, the EC50 in assay [1] is 0.029 µg/mL. For the same molecule, the 50% inhibitory concentration (IC50) in assay [3] stood at 1.29 nM. Moreover, in assay [4], the half-inhibitory concentration (IC50) stood at 1.69 nM.

B3: hIL-7Rα-mFc (ACROBiosystems, Cat. No. ILA-H5258) (Fc fusion, human, UniProt P16871 21-239, looked up)
chain: ESGYAQNGDLEDAELDDYSFSCYSQLEVNGSQHSLTCAFEDPDVNITNLEFEICGALVEVKCLNFRKLQEIYFIETKKFLLIGKSNICVKVGEKSLTCKKIDLTTIVKPEAPFDLSVVYREGANDFVVTFNTSHLQKKYVKVLMHDVAYRQEKDENKWTHVNLSSTKLTLLQRKLQPAAMYEIKVRSIPDHYFKGFWSEWSPSYYFRTPEINNSSGEMD
notes: Bought protein; not shown: mouse Fc tag
For B3, the half-maximal effective concentration (EC50) in the assay with hTSLP/TSLPR-Fc complex was determined as 0.689 µg/mL.
